This note sets out measurements from patent CN115368463A (HEFEI TIANGANG IMMUNOLOGY PHARMACEUTICAL CO LTD, dated 2022).

One experiment addresses T1, CD27蛋白 (Homo sapiens (Human), UniProt P26842 20-260).
T1 construct: also called CHO-K1-CD27细胞; Jurkat-NFAT-lucia-CD27细胞
T1 sequence: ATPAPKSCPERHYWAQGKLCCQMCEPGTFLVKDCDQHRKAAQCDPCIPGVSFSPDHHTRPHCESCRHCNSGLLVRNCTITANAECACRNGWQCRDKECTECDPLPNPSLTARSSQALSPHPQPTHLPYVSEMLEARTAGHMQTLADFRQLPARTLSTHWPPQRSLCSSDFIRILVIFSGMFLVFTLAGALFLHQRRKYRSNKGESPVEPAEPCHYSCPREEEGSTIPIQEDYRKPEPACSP
The experiment is described as follows: flow cytometry on CHO-K1-CD27 cells, antibody at 0.1-300 μg/mL, Alexa-647 anti-human Fc secondary antibody. (Flow cytometry measures light scatter and fluorescence of single cells or particles in a stream.)

The next experiment deals with T2, Nectin-4蛋白 (Homo sapiens (Human), UniProt Q96NY8 32-510).
T2 construct: also called PVRL4; CHO-K1-Nectin-4细胞
T2 sequence: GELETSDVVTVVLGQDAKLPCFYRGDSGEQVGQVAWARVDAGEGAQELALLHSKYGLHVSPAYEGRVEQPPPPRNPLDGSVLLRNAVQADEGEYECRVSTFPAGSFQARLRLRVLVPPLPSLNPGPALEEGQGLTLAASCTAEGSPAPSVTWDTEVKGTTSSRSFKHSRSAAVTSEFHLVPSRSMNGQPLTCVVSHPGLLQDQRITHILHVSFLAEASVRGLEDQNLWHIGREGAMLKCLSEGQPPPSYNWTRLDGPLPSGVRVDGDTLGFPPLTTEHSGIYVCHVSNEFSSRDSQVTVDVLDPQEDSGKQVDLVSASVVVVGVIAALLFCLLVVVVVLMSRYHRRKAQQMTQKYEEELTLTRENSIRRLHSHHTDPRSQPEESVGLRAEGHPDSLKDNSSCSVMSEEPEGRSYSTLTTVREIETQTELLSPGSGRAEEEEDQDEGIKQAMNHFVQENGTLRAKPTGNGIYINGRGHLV
Description: flow cytometry on CHO-K1-Nectin-4 cells, antibody at 0.1-300 μg/mL, Alexa-647 anti-human Fc secondary antibody.

B1: 抗体CD27×Nectin-4 (bispecific antibody, human IgG1, kappa, L234A L235A)
scFv: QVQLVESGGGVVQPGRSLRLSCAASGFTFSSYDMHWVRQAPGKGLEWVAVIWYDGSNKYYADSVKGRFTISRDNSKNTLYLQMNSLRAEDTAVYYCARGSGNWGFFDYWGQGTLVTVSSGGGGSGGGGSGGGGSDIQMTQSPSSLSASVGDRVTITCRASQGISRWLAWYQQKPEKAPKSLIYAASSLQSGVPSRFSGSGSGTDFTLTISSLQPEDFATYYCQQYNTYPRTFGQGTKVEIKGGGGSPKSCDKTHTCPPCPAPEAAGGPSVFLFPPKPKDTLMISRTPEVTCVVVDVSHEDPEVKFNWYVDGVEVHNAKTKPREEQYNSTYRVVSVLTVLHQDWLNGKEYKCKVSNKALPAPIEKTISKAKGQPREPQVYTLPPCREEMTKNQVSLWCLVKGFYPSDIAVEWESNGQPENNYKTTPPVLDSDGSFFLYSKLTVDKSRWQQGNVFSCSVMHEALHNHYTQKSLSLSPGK
heavy: EVQLVESGGGLVQPGGSLRLSCAASGFTFSSYNMNWVRQAPGKGLEWVSYISSSSSTIYYADSVKGRFTISRDNAKNSLSLQMNSLRDEDTAVYYCARAYYYGMDVWGQGTTVTVSSASTKGPSVFPLAPSSKSTSGGTAALGCLVKDYFPEPVTVSWNSGALTSGVHTFPAVLQSSGLYSLSSVVTVPSSSLGTQTYICNVNHKPSNTKVDKKVEPKSCDKTHTCPPCPAPEAAGGPSVFLFPPKPKDTLMISRTPEVTCVVVDVSHEDPEVKFNWYVDGVEVHNAKTKPREEQYNSTYRVVSVLTVLHQDWLNGKEYKCKVSNKALPAPIEKTISKAKGQPREPQVCTLPPSREEMTKNQVSLSCAVKGFYPSDIAVEWESNGQPENNYKTTPPVLDSDGSFFLVSKLTVDKSRWQQGNVFSCSVMHEALHNHYTQKSLSLSPGK
light: DIQMTQSPSSVSASVGDRVTITCRASQGISGWLAWYQQKPGKAPKFLIYAASTLQSGVPSRFSGSGSGTDFTLTISSLQPEDFATYYCQQANSFPPTFGGGTKVEIKRTVAAPSVFIFPPSDEQLKSGTASVVCLLNNFYPREAKVQWKVDNALQSGNSQESVTEQDSKDSTYSLSSTLTLSKADYEKHKVYACEVTHQGLSSPVTKSFNRGEC
notes: also called CD27×Nectin-4抗体; CD27×Nectin-4双特异抗体
Regarding B1, the binding result in the experiment with CD27蛋白 and with Nectin-4蛋白 was “binds” throughout.
